Results: US20260070940A1 (Hoffmann-La Roche, published 2026)
Values joined by “and” are separate entries in the source; they are usually repeats but may differ in a detail not shown here. Equal entries are not always repeated.

T1: human LAG3 on recombinant CHO cells (human, UniProt P18627 23-525)
T1 construct: whole, on cells; also called Lag3 cells
T1 sequence (looked up): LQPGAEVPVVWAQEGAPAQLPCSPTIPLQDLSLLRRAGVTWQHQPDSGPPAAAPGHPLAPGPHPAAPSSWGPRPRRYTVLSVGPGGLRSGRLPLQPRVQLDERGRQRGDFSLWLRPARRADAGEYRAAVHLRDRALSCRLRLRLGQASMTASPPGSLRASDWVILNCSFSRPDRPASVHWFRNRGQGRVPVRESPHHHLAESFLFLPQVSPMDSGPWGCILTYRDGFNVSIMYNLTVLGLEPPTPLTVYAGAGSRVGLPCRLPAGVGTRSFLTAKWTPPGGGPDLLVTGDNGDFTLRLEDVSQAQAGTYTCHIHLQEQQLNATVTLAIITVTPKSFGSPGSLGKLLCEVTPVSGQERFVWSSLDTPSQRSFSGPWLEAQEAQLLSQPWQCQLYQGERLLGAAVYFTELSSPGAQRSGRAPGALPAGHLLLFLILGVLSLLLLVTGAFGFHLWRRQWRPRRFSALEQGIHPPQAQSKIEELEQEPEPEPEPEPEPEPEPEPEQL

T2: recombinant human LAG3 Fc Chimera Protein (R&D Systems, 2319-L3) (human, UniProt P18627 23-450)
T2 construct: Bought
T2 sequence (looked up): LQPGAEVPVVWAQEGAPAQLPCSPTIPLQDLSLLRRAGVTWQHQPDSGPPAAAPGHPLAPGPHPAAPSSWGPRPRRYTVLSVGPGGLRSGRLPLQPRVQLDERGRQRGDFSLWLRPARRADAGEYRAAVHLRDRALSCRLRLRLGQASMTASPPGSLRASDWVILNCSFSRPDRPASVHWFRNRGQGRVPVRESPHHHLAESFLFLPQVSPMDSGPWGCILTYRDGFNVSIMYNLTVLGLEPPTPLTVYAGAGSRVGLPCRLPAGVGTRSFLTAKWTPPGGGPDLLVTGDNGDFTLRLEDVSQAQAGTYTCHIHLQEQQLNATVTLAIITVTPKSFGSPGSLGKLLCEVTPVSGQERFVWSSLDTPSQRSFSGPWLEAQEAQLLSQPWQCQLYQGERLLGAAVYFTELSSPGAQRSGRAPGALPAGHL

T3: MCSP antigen, amino acids 1553 to 2184 of matured MCSP with C-terminal avi-tag and His-tag, biotinylated (Homo sapiens (Human), UniProt Q6UVK1 1582-2213, limits assumed, biotin on the avi-tag)
T3 construct: also called recombinant MCSP
T3 sequence: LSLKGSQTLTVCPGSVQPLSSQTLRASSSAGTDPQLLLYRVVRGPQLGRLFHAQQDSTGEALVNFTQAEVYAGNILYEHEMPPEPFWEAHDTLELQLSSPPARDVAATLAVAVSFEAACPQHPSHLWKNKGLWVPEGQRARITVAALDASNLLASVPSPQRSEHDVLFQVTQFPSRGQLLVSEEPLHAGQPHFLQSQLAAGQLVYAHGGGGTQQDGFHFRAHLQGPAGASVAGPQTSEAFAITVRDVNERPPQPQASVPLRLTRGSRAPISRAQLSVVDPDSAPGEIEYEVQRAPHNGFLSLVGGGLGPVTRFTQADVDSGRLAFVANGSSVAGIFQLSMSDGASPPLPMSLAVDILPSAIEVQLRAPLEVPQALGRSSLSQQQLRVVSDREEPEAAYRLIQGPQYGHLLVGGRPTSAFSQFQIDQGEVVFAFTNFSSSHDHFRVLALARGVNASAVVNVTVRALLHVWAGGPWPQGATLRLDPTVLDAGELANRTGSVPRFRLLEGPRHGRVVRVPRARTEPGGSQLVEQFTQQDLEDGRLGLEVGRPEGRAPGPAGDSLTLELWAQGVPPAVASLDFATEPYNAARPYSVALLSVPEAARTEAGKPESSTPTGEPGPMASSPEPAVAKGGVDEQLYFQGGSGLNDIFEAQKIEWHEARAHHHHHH

T4: murine LAG3-Fc antigen (R&D Systems, 3328-L3-050) (murine, UniProt Q61790 24-442)
T4 construct: Bought
T4 sequence (looked up): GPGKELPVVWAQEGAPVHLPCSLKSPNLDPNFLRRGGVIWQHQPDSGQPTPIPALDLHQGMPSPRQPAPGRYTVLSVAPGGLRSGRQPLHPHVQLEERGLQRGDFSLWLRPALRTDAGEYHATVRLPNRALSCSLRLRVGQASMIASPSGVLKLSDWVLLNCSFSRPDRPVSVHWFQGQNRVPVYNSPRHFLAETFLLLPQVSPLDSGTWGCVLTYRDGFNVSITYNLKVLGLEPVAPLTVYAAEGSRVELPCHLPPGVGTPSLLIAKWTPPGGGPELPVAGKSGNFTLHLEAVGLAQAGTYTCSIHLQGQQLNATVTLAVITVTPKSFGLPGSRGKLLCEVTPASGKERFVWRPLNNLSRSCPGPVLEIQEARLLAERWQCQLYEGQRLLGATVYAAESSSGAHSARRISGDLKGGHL


How the values were obtained:
[1] = molecular target: T5, full-length human CD28 with N-terminal SNAP tag on transfected Hek293 cells (human, UniProt P10747 19-220, SNAP tag labelled with terbium); test: FRET competition, unlabelled against d2-TGN1412 on CD28-SNAP cells; 95% CI in brackets
T5 construct: whole, on cells; also called hu CD28-SNAP

[2] = molecular target: T5, full-length human CD28 with N-terminal …; test: FRET competition on cells with terbium-labelled hu CD28-SNAP; competitor d2-labelled TGN1412 (0.15 nM), unlabelled TGN1412 IgG titrated
[3] = molecular target: T1, human LAG3 on recombinant CHO cells; test: cell ELISA, CHO-LAG3
Description: The next day after removal of medium, 25 μl of bivalent anti-Lag3 aVH-Fc constructs (1:3 dilutions in OSEP buffer, starting at a concentration of 6 μg/ml) were added and incubated for 2 h at 4° C. After washing (1×90 μl in PBST) cells were fixed by addition of 30 μl/well glutaraldehyde to a final concentration of 0.05% (Sigma Cat.No: G5882), 10 min at room temperature. After washing (3×90 μl/well with PBST-buffer) 25 μl/well goat anti-Human IgG H+L-HRP conjugate (Jackson, JIR109-036-088) was added in a 1:2000 dilution and incubated at RT for 1 h.

[4] = molecular target: T2, recombinant human LAG3 Fc Chimera …; test: ELISA, coated LAG3 Fc
Description: After washing (3×90 μl/well with PBST-buffer) each well was incubated with 90 μl blocking buffer (PBS+2% BSA+0.05% Tween 20) for 1 h at room temperature. After washing (3×90 μl/well with PBST-buffer) 25 μl anti-Lag3 aVH samples at a concentration of 1000 or 3000-0.05 ng/ml (1:3 dilutions in OSEP buffer) were added and incubated 1h at RT. After washing (3×90 μl/well with PBST-buffer) 25 μl/well goat anti-Human IgG F(ab′)2-HRP conjugate (Jackson, JIR109-036-006) was added in a 1:800 dilution and incubated at RT for 1 h.

[5] = molecular target: T6, soluble human Lag3-IgG1-Fc with biotinylated C-terminal Avi-tag (human, biotin on the Avi-tag); test: A375 MHCII competition ELISA
T6 construct: Lag3 ECD, IEGRMD linker, IgG1 Fc, Avi-tag; also called LAG3-Fc-avi; biotinylated LAG3-Fc
Description: (§1) After removal of medium from the wells with seeded cells, 25 μl of the aVH-Lag3 pre-incubated mixtures were transferred to the wells and incubated for 2 hrs at 4° C. After washing (1×90 μl in PBST) cells were fixed by addition of 30 μl/well glutaraldehyde to a final concentration of 0.05% (Sigma Cat.No: G5882), 10 min at room temperature. After washing (3×90 μl/well with PBST-buffer) 25 μl/well Poly-HRP40-Streptavidin (Fitzgerald, 65R-S104PHRPx) was added in a 1:2000 or 1:8000 dilution and incubated at RT for 1 h.

[6] = molecular target: T6, soluble human Lag3-IgG1-Fc with …; test: A375 MHCII competition ELISA, 3 ug/ml
Description: as §1

[7] = molecular target: T2, recombinant human LAG3 Fc Chimera …; test: SPR, captured antibody, LAG3 Fc analyte
[8] = molecular target: T3, MCSP antigen, amino acids 1553 to 2184 …; test: ELISA, supernatant on biotinylated antigen
[9] = molecular target: T4, murine LAG3-Fc antigen (R&D Systems, …); test: ELISA, murine LAG3-Fc
[10] = molecular target: T2, recombinant human LAG3 Fc Chimera …; test: SPR, captured aVH-Fc, LAG3 Fc analyte
[11] = molecular target: T2, recombinant human LAG3 Fc Chimera …; test: SPR, captured aVH-Fc, LAG3 Fc analyte; poor fit

Ki [1] [nM] | IC50 (read off the curve) [2] [nM] | OD max [3] | EC50 [4] | OD max [4] | IC50 [5] | % Inhibition [6] [%] | koff [7] [s⁻¹] | t½ [7] [min] | binding result [8] | binding result [9] | EC50 [3] | koff [10] [s⁻¹] | t½ [10] [min] | koff [11] [s⁻¹] | Binder
0.28 | ~0.6 | – | – | – | – | – | – | – | – | – | – | – | – | – | TGN1412 IgG (antibody, V domains shown) VH: QVQLVQSGAEVKKPGASVKVSCKASGYTFTSYYIHWVRQAPGQGLEWIGCIYPGNVNTNYNEKFKDRATLTVDTSISTAYMELSRLRSDDTAVYFCTRSHYGLDWNFDVWGQGTTVTVSS VL: not shown
– | – | 2.06 | 0.0031 µg/mL and 0.02 nM | 3.39 | 0.127 µg/mL and 0.8 nM | 90.4 | 0.00039 | 30 | – | – | – | – | – | – | MDX 25F7 (antibody, V domains shown) VH: QVQLQQWGAGLLKPSETLSLTCAVYGGSFSDYYWNWIRQPPGKGLEWIGEINHNGNTNSNPSLKSRVTLSLDTSKNQFSLKLRSVTAADTAVYYCAFGYSDYEYNWFDPWGQGTLVTVSS VL: EIVLTQSPATLSLSPGERATLSCRASQSISSYLAWYQQKPGQAPRLLIYDASNRATGIPARFSGSGSGTDFTLTISSLEPEDFAVYYCQQRSNWPLTFGQGTNLEIK
– | – | – | – | – | – | – | – | – | binds | – | – | – | – | – | SEQ ID NO 61 (VHH, also called MCSP-specific aVH) VHH: EVQLVESGGGLVQPGGSLRLSCAASSFNIKDTYIGWVRRAPGKGTELVAGIYCEAGITRYADSVKGRFTISCDTSKNTAYLQMNSLRAEDTAVYYCAGKGIGNYFDYWGQGTTVTVSS
– | – | 1.3 | 0.0194 µg/mL and 0.3 nM | 1.2 | 0.0762 µg/mL and 1 nM | 95.5 | – | – | – | no binding | 0.0288 µg/mL and 0.4 nM | 0.00019 | 61.1 | – | 9B4 aVH-Fc, bivalent (PG-LALA) (Fc fusion, not shown: linker and human IgG1 Fc (PG-LALA)) EVQLVESGGGLVQPGGSLRLSCAASGFNIKDTCIGWVRRAPGKGTELVAEICQDIGYTRYADSVKGRFTISADTSKNTAYLQMNSLRAEDTAVYYCAAVEVAEYFEYWGQGTTVTVSS
– | – | 1.2 | 0.113 µg/mL and 1.5 nM | 0.9 | 0.0933 µg/mL and 1.2 nM | 93.4 | – | – | – | no binding | 0.029 µg/mL and 0.4 nM | 0.00011 | 102 | – | P10D1 aVH-Fc, bivalent (PG-LALA) (Fc fusion, not shown: linker and human IgG1 Fc (PG-LALA)) EVQLVESGGGLVQPGGSLRLSCAASGFSIKDTCIAWVRRAPGKGTELVAEICEDIGYTRYADSVKGRFTISADTSKNTAYLQMNSLRAEDTAVYYCAAKEAGVGFDYWGQGTTVTVSS
– | – | 1.2 | – | 1.3 | 0.0903 µg/mL and 1.2 nM | 92.4 | – | – | – | no binding | 0.0169 µg/mL and 0.2 nM | – | 2.4 | 0.0048 | P11A2 aVH-Fc, bivalent (PG-LALA) (Fc fusion) heavy: EVQLVESGGGLVQPGGSLRLSCAASSFNIKDTYIGWVRRAPGKGTELVAEIACHEGTTRYADSVKGRFTISCDTSKNTAYLQMNSLRAEDTAVYYCANTEYDDIFDYWGQGTTVTVSSGGGGSGGGGSDKTHTCPPCPAPEAAGGPSVFLFPPKPKDTLMISRTPEVTCVVVDVSHEDPEVKFNWYVDGVEVHNAKTKPREEQYNSTYRVVSVLTVLHQDWLNGKEYKCKVSNKALGAPIEKTISKAKGQPREPQVYTLPPSRDELTKNQVSLTCLVKGFYPSDIAVEWESNGQPENNYKTTPPVLDSDGSFFLYSKLTVDKSRWQQGNVFSCSVMHEALHNHYTQKSLSLSPGK
– | – | – | – | – | – | – | – | – | binds | – | – | – | – | – | SEQ ID NO 59 (VHH, also called MCSP-specific aVH) VHH: EVQLVESGGGLVQPGGSLRLSCAASSFNIKDTYIGWVRRAPGKGTELVADIYCSEGSTRYADSVKGRFTISCDTSKNTAYLQMNSLRAEDTAVYYCAAVSDYVVFYYWGQGTTVTVSS
